Results: PMC6110070

Columns and labels:
[1] = target: recombinant E. coli ribosomal protein bL12 (L12), C-terminally His-tagged, as purified: (L7/L12)2 (E. coli) (UniProt P0A7K2); assay: SEC; Superdex 75 column, elution followed at 280 nm and 260 nm, column calibrated with protein markers; apparent molecular weight about 50 kDa; oligomer of 13 kDa chains
Lys65 = Lys65 (UniProt position 66, AAGANKVAVIK); details: Not stated. Ref 16 concerns affinity labelling of bL12 in situ on E. coli 70S ribosomes with a tRNA dialdehyde derivative.; cited from earlier work

Row | stoichiometry N [1] | Substance | pKa (Lys65)
1 | 4 | recombinant E. coli ribosomal protein bL12 (L12), C-terminally His-tagged, as purified: (L7/L12)2 (from UniProt P0A7K2 1-121; P0A7K2 1-121) (natural protein) | –
2 | – | 50S ribosomal protein bL12 (L7/L12) (Escherichia coli) | 7.2
